B1: P5A-3C12 (full-length IgG) (antibody, V domains shown)
VH: QITLKESGPTLVKPTQTLTLTCTFSGFSLSTSGVGVGWIRQPPGKALEWLALIYWDDDKRYSPSLKSRLTITKDTSKNQVVLTMTNMDPVDTATYYCAHSLFLTVGYSSSWSPFDYWGQGTLVTVSS
VL: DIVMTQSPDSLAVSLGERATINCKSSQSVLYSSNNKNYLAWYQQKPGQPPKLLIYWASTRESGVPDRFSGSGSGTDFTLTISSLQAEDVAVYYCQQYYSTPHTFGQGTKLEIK
B2: P5A-1B9 (full-length IgG) (antibody, V domains shown)
VH: QVQLQESGPGLVKPSETLSLTCTVSGGSISSYYWSWIRQPPGKGLEWIGYISYSGSTNYNPSLKSRVTISLDTSKNQFSLKLSSVTAADTAVYYCASNGQYYDILTGQPPDYWYFDLWGRGTLVTVSS
VL: not shown
B3: P2B-1A10 (full-length IgG) (antibody, V domains shown)
VH: EVQLVESGGGLIQPGGSLRLSCAASGFTVSSNYMSWVRQAPGKGLEWVSVIYSGGSTYYADSVKGRFTISRDNSKNTLYLQMNSLRAEDTAVYYCAREGPKSITGTAFDIWGQGTIVTVSS
VL: DIQMTQSPSSLSASVGDRVTITCQASQDISNYFNWYQQKPGKAPKLLIYDASNLETGVPSRFSGSGSGTDFTFTISSLQPEDIATYYCQQYDNLPMYTFGQGTKLEIK
B4: P2B-1A1 (full-length IgG) (antibody, V domains shown)
VH: QVQLQESGPGLVKPSETLSLTCTVSGGSISSYYWSWIRQPPGKGLEWIGYIYYSGSTNYNPSLKSRVTISVDTSKKQFSLKLSSVTAADTAVYYCARLERDWPLDAFDIWGQGTMVTVSS
VL: QSALTQPASVSGSPGQSITISCTGTSSDVGGYNYVSWYQQHPGKAPKFMIYDVSKRPSGVSNRFSGSKSGNTASLTISGLQAEDEADYYCSSYTSNNTFAFGGGTKLTVL
B5: P5A-1B8 (full-length IgG) (antibody, V domains shown)
VH: EVQLVESGGGLIQPGGSLRLSCAASGFTVSSNYMSWVRQAPGKGLEWVSVIYPGGSTFYADSVKGRFTISRDNSKNTLYLQMNSLRAEDTAVYYCARETLAFDYWGQGTLVTVSS
VL: DIQLTQSPSFLSASVGDRVTITCRASQGISSYLAWYQQKPGKAPKLLIYAASTLQSGVPSRFSGSGSGTEFTLTISSLQPEDFATYYCQQLNSYPPAFGGGTKVEIK
B6: P5A-2G7 (full-length IgG) (antibody, V domains shown)
VH: QVQLQESGPGLVKPSETLSLTCTVSGDSVSSGSYYWSWIRQPPGKGLEWIGYIYYSGSTNYNPSLKSRVTISVDTSKNQFSLKLSSVTAADTAVYYCARERCYYGSGRAPRCVWFDPWGQGTLVTVSS
VL: QSALTQPASVSGSPGQSITISCTGTSSDVGGYNYVSWYQQHPGKAPKLMIYDVSNRPSGVSNRFSGSKSGNTASLTISGLQAEDEADYYCSSYTSSSTLVVFGGGTKLTVL
B7: P5A-2G9 (full-length IgG) (antibody, V domains shown)
VH: QVQLVESGGGVVQPGRSLRLSCAASGFTFSSYGMHWVRQAPGKGLEWVAVIWYDGSNKYYADSVKGRFTISRDNSKNTLYLQMNSLRAEDTAVYYCARWFHTGGYFDYWGQGTLVTVSS
VL: QPVLTQPPSSSASPGESARLTCTLPSDINVSSYNIYWYQQKPGSPPRYLLYYYSDSDKGQGSGVPSRFSGSKDASANTGILLISGLQSEDEADYYCMIWPSNALYVFGTGTKVTVL
B8: P5A-2F11 (full-length IgG) (antibody, V domains shown)
VH: QVQLVQSGAEVKKPGASVKVSCKASGYTFTSYDINWVRQATGQGLEWMGWMNPNSGNTGYAQKFQGRVTMTRNTSISTAYMELSSLRSEDTAVYYCARYIVVVPAAKGFDPWGQGTLVTVSS
VL: not shown
B9: P5A-1B6 (full-length IgG) (antibody, V domains shown)
VH: QVQLVESGGGVVQPGRSLRLSCAASGFTFSSYAMHWVRQAPGKGLEWVAVISYDGSNKYYADSVKGRFTISRDNSKNTLYLQMNSLRAEDTAVYYCARDGQAITMVQGVIGPPFDYWGQGTLVTVSS
VL: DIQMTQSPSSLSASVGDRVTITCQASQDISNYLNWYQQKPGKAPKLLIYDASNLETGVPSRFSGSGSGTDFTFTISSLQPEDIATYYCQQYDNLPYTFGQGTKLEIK

Key:
[1] = molecular target: T1, SARS-CoV-2 RBD (residues Arg319–Phe541) (SARS-CoV-2, UniProt P0DTC2); assay: SPR; conditions: both partners purified
[2] = molecular target: T1, SARS-CoV-2 RBD (residues Arg319–Phe541); assay: cell-based or functional assay

Binder	Kd [1] [nM]	other [2] [%]
B1	1.03	54.5
B2	0.75	43.8
B3	50.8	81.8
B4	27	-9.7
B5	1.09	79.6
B6	3.55	57.2
B7	6.98	84.9
B8	5.33	56.2
B9	1.01	76

Source: article PMC7966918 (Cell Research, 2021)
